# Assay results reported in patent US20230406942A1 (HORIZON THERAPEUTICS IRELAND DAC, published 2023).
# Substitutions are numbered along the chain they refer to.
# B1: D03 antibody (antibody, V domains shown)
# VH: QVELVESGGGVVQPGRSQRLSCAASGFTFSSHGMHWVRQAPGKGLEWVAYIWFDGSSTYYADSVRGRFTISRDNSKNTLYLQMNSLRAEDTAVYFCARELGRRYFDLWGRGTLVSVSS
# VL: EIVLTQSPATLSLSPGERATLSCRASQSVSSALAWYQQKPGQAPRLLIYDASKRATGIPARFSGSGSGTDFTLTISSLEPEDFAVYYCQQRSKYPPWTFGQGTKVESK
# notes: Whole antibody; also called clone D03
# B2: E01 antibody (antibody, V domains shown)
# VH: B1 VH with H32Y, Y50I
# VL: B1 VL with A32Y
# notes: Whole antibody
# B3: H11 antibody (antibody, V domains shown)
# VH: B1 VH with H32Y, Y50T, F53H
# VL: B1 VL with S92G
# notes: Whole antibody
# B4: Teprotumumab reference antibody (antibody, V domains shown)
# VH: B1 VH with H32Y, Y50I
# VL: B1 VL with A32Y, Y94W
# B5: D03-YTE (antibody, V domains shown)
# VH: B1 VH
# VL: B1 VL
# Biological target: T1, IGF-1R (coated on Maxisorp plates) (UniProt P08069 31-932, limits assumed)
# T1 construct: also called the receptor
# T1 sequence (P08069 31-932 limits assumed): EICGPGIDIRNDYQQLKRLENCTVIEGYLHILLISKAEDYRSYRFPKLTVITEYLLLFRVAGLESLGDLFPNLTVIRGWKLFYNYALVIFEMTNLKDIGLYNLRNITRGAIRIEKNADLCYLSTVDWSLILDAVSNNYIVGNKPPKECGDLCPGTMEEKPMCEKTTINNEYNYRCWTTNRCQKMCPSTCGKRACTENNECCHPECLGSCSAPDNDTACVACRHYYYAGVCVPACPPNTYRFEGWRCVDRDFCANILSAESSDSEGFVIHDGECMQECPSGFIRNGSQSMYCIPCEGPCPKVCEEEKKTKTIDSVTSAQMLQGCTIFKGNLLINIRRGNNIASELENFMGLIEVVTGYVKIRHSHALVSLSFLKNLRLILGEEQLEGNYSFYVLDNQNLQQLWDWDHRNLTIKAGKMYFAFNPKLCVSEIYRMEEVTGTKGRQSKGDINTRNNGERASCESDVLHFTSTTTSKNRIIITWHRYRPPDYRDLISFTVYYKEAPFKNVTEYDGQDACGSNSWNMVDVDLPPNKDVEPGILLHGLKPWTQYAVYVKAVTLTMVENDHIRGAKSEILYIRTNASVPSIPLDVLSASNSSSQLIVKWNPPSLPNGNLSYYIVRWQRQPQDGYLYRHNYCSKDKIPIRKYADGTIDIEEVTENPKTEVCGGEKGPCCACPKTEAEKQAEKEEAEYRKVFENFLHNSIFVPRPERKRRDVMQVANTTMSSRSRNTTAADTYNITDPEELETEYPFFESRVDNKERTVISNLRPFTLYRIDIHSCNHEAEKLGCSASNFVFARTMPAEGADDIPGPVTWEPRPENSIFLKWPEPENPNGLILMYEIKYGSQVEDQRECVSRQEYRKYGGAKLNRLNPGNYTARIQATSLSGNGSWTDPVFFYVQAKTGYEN
# Assay: competition ELISA, plate-coated IGF-1R, antibody titrated against 20 ng/mL IGF-1 biotin
# Procedure: (§1) Maxisorp plates were coated with 1.5 ug/mL of IGF-1R overnight at 4° C. Plates were washed and blocked with 1% BSA. Subsequently, serially diluted anti-IGF1R antibodies were incubated for 30 min at room temperature followed by an incubation with a final concentration of 20 ng/mL IGF-1 biotin. Plates were washed and streptavidin-horseradish peroxidase was added. After a final wash, 3,3′,5,5′-Tetramethylbenzidine was added for 8 minutes. The reaction was terminated with a HCL based stop solution. Plates were measured for absorbance at 450 nm, and the data was analyzed using Softmax Pro 7.1 software.
row,Binder,IC50
1,B1,0.388 µg/mL
2,B2,0.388 µg/mL
3,B3,0.452 µg/mL

# Biological target: T1, IGF-1R (coated on Maxisorp plates)
# Assay: competition ELISA, plate-coated IGF-1R, antibody titrated against 200 ng/mL IGF-2 biotin
# Procedure: as §1, with “of 200” for “of 20”, “ng/mL of IGF-2” for “ng/mL IGF-1”
row,Binder,IC50
1,B1,0.161 µg/mL
2,B2,0.141 µg/mL
3,B3,0.157 µg/mL

# Biological target: T2, IGF-1R on NCI-H322 cells (UniProt P08069 31-1367, limits assumed)
# T2 sequence (P08069 31-1367 limits assumed): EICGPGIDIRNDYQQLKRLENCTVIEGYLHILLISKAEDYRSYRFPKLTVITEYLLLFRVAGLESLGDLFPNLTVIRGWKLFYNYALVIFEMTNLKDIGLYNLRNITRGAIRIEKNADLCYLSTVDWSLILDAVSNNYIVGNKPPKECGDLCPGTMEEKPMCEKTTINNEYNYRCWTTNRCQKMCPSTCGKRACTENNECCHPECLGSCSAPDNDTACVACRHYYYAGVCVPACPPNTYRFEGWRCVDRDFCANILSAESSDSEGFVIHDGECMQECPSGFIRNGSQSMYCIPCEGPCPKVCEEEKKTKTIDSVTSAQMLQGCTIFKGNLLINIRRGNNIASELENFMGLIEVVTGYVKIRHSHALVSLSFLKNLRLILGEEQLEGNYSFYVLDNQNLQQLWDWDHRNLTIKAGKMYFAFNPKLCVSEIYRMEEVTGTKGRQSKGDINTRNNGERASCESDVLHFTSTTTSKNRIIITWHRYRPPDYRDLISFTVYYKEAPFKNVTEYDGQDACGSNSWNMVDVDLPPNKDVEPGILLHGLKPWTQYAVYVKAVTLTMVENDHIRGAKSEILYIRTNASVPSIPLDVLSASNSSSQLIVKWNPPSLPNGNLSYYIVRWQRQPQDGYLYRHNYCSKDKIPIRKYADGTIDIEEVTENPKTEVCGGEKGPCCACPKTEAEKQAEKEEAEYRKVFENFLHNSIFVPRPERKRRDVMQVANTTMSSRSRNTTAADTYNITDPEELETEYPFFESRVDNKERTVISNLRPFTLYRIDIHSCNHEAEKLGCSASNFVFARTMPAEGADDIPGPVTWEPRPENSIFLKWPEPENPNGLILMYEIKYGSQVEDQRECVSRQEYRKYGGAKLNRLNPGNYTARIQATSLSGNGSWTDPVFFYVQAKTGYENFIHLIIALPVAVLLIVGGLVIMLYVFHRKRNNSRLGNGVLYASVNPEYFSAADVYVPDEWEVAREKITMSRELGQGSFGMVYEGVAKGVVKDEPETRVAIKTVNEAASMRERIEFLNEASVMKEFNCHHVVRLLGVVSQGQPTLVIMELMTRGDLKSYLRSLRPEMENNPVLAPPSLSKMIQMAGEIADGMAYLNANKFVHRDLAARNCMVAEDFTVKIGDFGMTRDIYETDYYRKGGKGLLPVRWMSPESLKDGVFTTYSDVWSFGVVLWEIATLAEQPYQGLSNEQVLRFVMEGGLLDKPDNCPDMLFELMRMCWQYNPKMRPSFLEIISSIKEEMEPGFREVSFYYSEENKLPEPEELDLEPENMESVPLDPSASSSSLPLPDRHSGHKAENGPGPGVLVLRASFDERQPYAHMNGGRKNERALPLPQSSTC
# Assay: cell-based or functional assay
row,Binder,IC50 of inhibition of IGF-1R phosphorylation
1,B4,397 ng/mL
2,B5,20.5 ng/mL

# Biological target: T2, IGF-1R on NCI-H322 cells
# Assay: cell-based or functional assay
# Remark: another data set of the same source
row,Binder,Inhibition of Phosphorylation IC50
1,B4,10.6 ng/mL
2,B1,4.9 ng/mL
3,B2,6.4 ng/mL
4,B3,21.1 ng/mL
